Results published in PMC13589956, “Engineered flavonoid disrupts mitochondrial AIF/CHCHD4 complex for targeted cancer therapy” (Acta Pharmaceutica Sinica. B, 2026).

Target: T1, HIS-AIF_(103-613) (human, UniProt O95831 103-613)
T1 construct: apoptosis-inducing factor (AIF, encoded by AIFM1), human, residues 103-613; also called apoptosis-inducing factor; source: E. coli BL21+DE3(RIPL), 0.5 mmol/L IPTG 3 h at 37 °C, purified
Assay: AlphaScreen or HTRF; His-AIF_(103-613) (5 μL at 300 nmol/L) and GST-CHCHD4 (5 μL at 100 nmol/L, 2 h) coupled by their tags to donor and acceptor beads (5 μg/mL, 3 h at 23 °C in the dark); 384-well plates, 25 μL, 0.1% BSA/PBS; N27 at 3 μmol/L as positive control of inhibition
Settings: both partners purified

T1 sequence (O95831 103-613): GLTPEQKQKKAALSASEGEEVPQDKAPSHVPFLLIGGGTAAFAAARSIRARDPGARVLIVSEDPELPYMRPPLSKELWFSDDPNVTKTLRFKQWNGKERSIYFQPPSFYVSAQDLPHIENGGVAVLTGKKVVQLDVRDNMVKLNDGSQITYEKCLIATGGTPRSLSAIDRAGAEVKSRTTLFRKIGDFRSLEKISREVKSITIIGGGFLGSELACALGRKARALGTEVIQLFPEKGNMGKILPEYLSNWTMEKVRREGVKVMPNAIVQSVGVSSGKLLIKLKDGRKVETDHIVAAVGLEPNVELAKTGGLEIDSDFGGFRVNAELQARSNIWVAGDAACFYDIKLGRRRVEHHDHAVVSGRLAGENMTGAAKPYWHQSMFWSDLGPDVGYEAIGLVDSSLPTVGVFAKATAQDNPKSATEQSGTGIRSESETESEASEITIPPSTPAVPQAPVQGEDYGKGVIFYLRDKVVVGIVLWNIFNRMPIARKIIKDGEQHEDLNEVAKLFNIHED

| Binder | binding result |
| --- | --- |
| MSYCRQEGKDRIIFVTKEDHETPSSAE (peptide, UniProt Q8N4Q1 1-27, looked up, synthetic peptide corresponding to the N-terminal 27 amino acids of CHCHD4; source: synthetic peptide) [peptide N27] | binds |
| GST-CHCHD4 (natural protein, human, UniProt Q8N4Q1 1-142, looked up, coiled-coil-helix-coiled-coil-helix domain-containing protein 4 (CHCHD4), human; it is printed both as GST-CHCHD4 and as CHCHD4-Gst; also called CHCHD4-Gst; coiled-coil-helix-coiled-coil-helix domain-containing protein 4; source: E. coli BL21+DE3(RIPL), 0.5 mmol/L IPTG 3 h at 37 °C, purified) MSYCRQEGKDRIIFVTKEDHETPSSAELVADDPNDPYEEHGLILPNGNINWNCPCLGGMASGPCGEQFKSAFSCFHYSTEEIKGSDCVDQFRAMQECMQKYPDLYPQEDEDEEEEREKKPAEQAEETAPIEATATKEEEGSS | binds |
